Measurements: paper PMC5748844 (The Journal of Experimental Medicine, 2018)
Where two headings read alike, the source gives them in different places. One block for each molecule: values may come before it.

Assays:
[1] = molecular target: soluble RAGE (receptor for advanced glycation end products) (UniProt Q15109); experiment: SPR
[2] = molecular target: soluble RAGE (receptor for advanced glycation end products) (UniProt Q15109); experiment: SPR; remark: listed apart in the source

Kd [1]: 3.5 µM
Molecule: nonoxidizable HMGB1 mutant 3S (from UniProt P63159 1-215) (natural protein)

Kd [2]: 3.5 µM
B1: fully reduced HMGB1 (High Mobility Group Box 1) (natural protein)
chain: MGKGDPKKPRGKMSSYAFFVQTCREEHKKKHPDASVNFSEFSKKCSERWKTMSAKEKGKFEDMAKADKARYEREMKTYIPPKGETKKKFKDPNAPKRPPSAFFLFCSEYRPKIKGEHPGLSIGDVAKKLGEMWNNTAADDKQPYEKKAAKLKEKYEKDIAAYRAKGKPDAAKKGVVKAEKSKKKKEEEDDEEDEEDEEEEEEEEDEDEEEDDDDE
modifications: all cysteines reduced
